Laboratory results as given in patent US20240360214A1 (Pfizer, published 2024).
Like-named read-outs stand apart in the source and are kept apart here. Values belong to the binder of their own block, whether it stands above or below them.

Columns and labels:
huLILRA4 = huLILRA4 (human, UniProt P59901 24-446, limits assumed); assay: ELISA, target coated on the plate, detection with anti-human IgG-HRP, OD at 450 nm
Protocol: (§1) Purified target proteins huLILRA1, A2, A3, A4, A5, A6, huLILRB1, B2, B3, B4 and B5 (all purchased from R&D) were coated on Nunc-Maxisorb 96-well ELISA plate at 1 ug/ml concentration and stored at 4° C. overnight. Plate was washed 3 times with PBS+0.05% Tween-20 and blocked with PBS+3% milk for 1 hour at room temperature. Tested LILRB1/LILRB2 bispecific antibody was serially diluted 5-fold in PBS+3% milk, starting from 133 nM. Blocking solution was removed and serially diluted antibody was added and incubated for 1 hour at room temperature. Plate was washed and a secondary detecting antibody (goat anti-human IgG-HRP from Invitrogen, Cat #31413, 1:5000) was added and incubated for 30 minutes at room temperature. Plate was washed again for 5 times; signal was developed using TMB substrate and the reaction stopped with 0.18M H₂SO₄. Absorbance was read at 450 nm on an envision plate reader (Perkin Elmer). […] There were no binding activities observed to any of the huLILRA family members tested, and no binding to huLILRB3, B4 or B5.

huLILRA2 [1] = molecular target: T1, huLILRA2 (human, UniProt Q8N149 24-449, limits assumed); assay: as above
Protocol: as §1

huLILRB5 = huLILRB5 (human, UniProt O75023 24-458, limits assumed); assay: as above
Protocol: as §1

[2] = molecular target: T2, human LILRB2 (huLILRB2), purified recombinant protein (human, UniProt Q8N423 22-458, limits assumed); assay: as above
T2 construct: Bought protein, used as the SPR analyte and as the ELISA coat; also called huLILIB2
Protocol: as §1

huLILRB3 = huLILRB3 (human, UniProt O75022 24-443, limits assumed); assay: as above
Protocol: as §1

huLILRB4 = huLILRB4 (human, UniProt Q8NHJ6 22-259, limits assumed); assay: as above
Protocol: as §1

huLILRA6 = huLILRA6 (human, UniProt Q6PI73 24-447, limits assumed); assay: as above
Protocol: as §1

huLILRA3 = huLILRA3 (human, UniProt Q8N6C8 24-439); assay: as above
Protocol: as §1

huLILRA1 [3] = molecular target: T3, huLILRA1 (human, UniProt O75019 17-461, limits assumed); assay: as above
Protocol: as §1

huLILRA5 [4] = molecular target: T4, huLILRA5 (human, UniProt A6NI73 42-268, limits assumed); assay: as above
Protocol: as §1

[5] = molecular target: T5, LILRB1 expressed on THP1 cells (human, UniProt Q8NHL6 24-650); assay: flow cytometry competition with PE HLA-G tetramer on THP1-LILRB1 cells
T5 construct: whole, on cells; also called THP1 LILRB1 expressing cells; THP1-LILRB1 cells
Protocol: (§2) LILRB1 or LILRB2 overexpressing THP1 cells were prepared in FACS buffer (0.5% BSA in PBS) and seeded in 100 μl/well (96 well plate) at 1λ10⁶ cells/ml concentration. The tested antibodies were serially diluted 3-fold into assay buffer starting from 200 nM. 40 μl of serial diluted antibody together with 40 μl of PE labelled HLA-G tetramer (FRED HUTCH IMT40509) at 2 ug/ml were added to each well and incubated on ice for 1 hour. The cells were washed 2 times with FACS buffer and resuspended in 50 μl/well FACS buffer containing 1:1000 dilution of LIVE/Dead fixable violet dead cell stain (Invitrogen #L34964), incubated on ice for 15 minutes. The cells were then washed with FACS buffer for 2 times and resuspended in 80 μl of Cytofix buffer (BD Cat #554655).
(§3) The cell-based HLA-G ligand blocking assays followed the same procedure as described in Example 2.

[6] = molecular target: T2, human LILRB2 (huLILRB2), purified …; assay: SPR (Biacore 8K, 37 C), antibody captured by anti-human Fc, huLILRB2 as analyte, 1:1 fit
[7] = molecular target: T6, LILRB2 expressed on THP1 cells (human, UniProt Q8N423 22-597); assay: flow cytometry competition with PE HLA-G tetramer on THP1-LILRB2 cells
T6 construct: whole, on cells; also called THP1 LILRB2 expressing cells; THP1-LILRB2 cells
Protocol: as §2, §3

[8] = molecular target: T7, human LILRB1 (huLILRB1), purified recombinant protein from R&D Systems (human, UniProt Q8NHL6 24-458, limits assumed); assay: SPR (Biacore 8K, 37 C), antibody captured by anti-human Fc, huLILRB1 as analyte, 1:1 fit
T7 construct: Bought protein, used as the SPR analyte and as the ELISA coat; The catalog number 8429-T4 is printed once for 'human LILRB2 or LILRB1'
Protocol: Biacore kinetic assays were conducted at 37° C. with a collection rate of 10 Hz using the Biacore 8K and 8K+instruments (Cytiva). Anti-LILRB2 antibodies were captured by an anti-human IgG (Fc specific) antibody (BR-1008-39, Cytiva) covalently coupled onto a CM5 sensor chip (29-1496-03, Cytiva) according to the manufacturer's instructions. The final capture levels of the antibodies ranged from 20 resonance units (RU) to 60 RU. HBS-EP+pH 7.4 (10 mM HEPES pH 7.4, 150 mM NaCl, 3 mM EDTA, 0.05% Tween 20) was used as sample and running buffer. Flow cell 1 was used as a reference flow cell. […] Dilutions were prepared in duplicate and injected over all flow cells for 60 s at flow rate of 50 μl per minute. Dissociation was monitored for 600 s and the surface was regenerated with two 30 s injections of 3M MgCl₂ at flow rate of 50 μl per minute. The resulting data was double referenced (Myszka, D. G. Improving biosensor analysis. J. Mol. Recognit. 12:279-284; (1999). Rate constants and affinities were determined by fitting the sensorgram data to a Langmuir 1:1 model using Biacore Insight Evaluation software version 3.0.12 (Cytiva). Results are summarized in Table 7.

huLILRA2 [9] = molecular target: T1, huLILRA2; assay: SPR (Biacore), antibody captured
huLILRA1 [10] = molecular target: T3, huLILRA1; assay: SPR (Biacore), antibody captured
huLILRA5 [11] = molecular target: T4, huLILRA5; assay: SPR (Biacore), antibody captured
[12] = molecular target: T5, LILRB1 expressed on THP1 cells; assay: flow cytometry competition with PE HLA-G tetramer on THP1-LILRB1 cells (THP-B1)
Protocol: as §2

[13] = molecular target: T5, LILRB1 expressed on THP1 cells; assay: flow cytometry competition with PE HLA-G tetramer on THP1-LILRB1 cells; remark: listed apart in the source
Protocol: as §2

[14] = molecular target: T7, human LILRB1 (huLILRB1), purified …; assay: SPR (Biacore 8K, 37 C), antibody captured by anti-human Fc, huLILRB1 as analyte, 1:1 fit; remark: listed apart in the source
Protocol: Biacore kinetic assays were conducted at 37° C. with a collection rate of 10 Hz using the Biacore 8K and 8K+ instruments (Cytiva). […] The final capture levels of the antibodies ranged from 20 resonance units (RU) to 60 RU. HBS-EP+pH 7.4 (10 mM HEPES pH 7.4, 150 mM NaCl, 3 mM EDTA, 0.05% Tween 20) was used as sample and running buffer. Flow cell 1 was used as a reference flow cell. Two-fold serial dilutions of human LILRB2 or LILRB1 (R&D Systems, Catalog number: 8429-T4) were prepared with concentrations from 45 nM to 1.667 nM for LILRB2; 405 nM to […] for LILRB1. Dilutions were prepared in duplicate and injected over all flow cells for 60 s at flow rate of 50 μl per minute. Dissociation was monitored for 600 s and the surface was regenerated with two 30 s injections of 3M MgCl₂ at flow rate of 50 μl per minute. The resulting data was double referenced (Myszka, D. G. Improving biosensor analysis. J. Mol. Recognit. 12:279-284; (1999). Rate constants and affinities were determined by fitting the sensorgram data to a Langmuir 1:1 model using Biacore Insight Evaluation software version 3.0.12 (Cytiva).

T2 sequence (Q8N423 22-458 limits assumed): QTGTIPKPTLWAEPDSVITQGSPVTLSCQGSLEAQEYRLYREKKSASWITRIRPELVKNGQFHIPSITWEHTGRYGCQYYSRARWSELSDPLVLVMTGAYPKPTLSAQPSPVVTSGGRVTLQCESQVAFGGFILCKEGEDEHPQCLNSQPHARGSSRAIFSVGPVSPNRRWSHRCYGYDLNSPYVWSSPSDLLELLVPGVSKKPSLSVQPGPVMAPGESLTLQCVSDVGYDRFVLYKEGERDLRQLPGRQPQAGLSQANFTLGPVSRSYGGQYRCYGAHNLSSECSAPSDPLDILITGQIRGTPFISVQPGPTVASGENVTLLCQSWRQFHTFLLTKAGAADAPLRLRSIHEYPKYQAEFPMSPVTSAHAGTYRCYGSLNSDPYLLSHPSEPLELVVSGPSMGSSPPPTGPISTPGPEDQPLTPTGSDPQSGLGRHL
T5 sequence (Q8NHL6 24-650): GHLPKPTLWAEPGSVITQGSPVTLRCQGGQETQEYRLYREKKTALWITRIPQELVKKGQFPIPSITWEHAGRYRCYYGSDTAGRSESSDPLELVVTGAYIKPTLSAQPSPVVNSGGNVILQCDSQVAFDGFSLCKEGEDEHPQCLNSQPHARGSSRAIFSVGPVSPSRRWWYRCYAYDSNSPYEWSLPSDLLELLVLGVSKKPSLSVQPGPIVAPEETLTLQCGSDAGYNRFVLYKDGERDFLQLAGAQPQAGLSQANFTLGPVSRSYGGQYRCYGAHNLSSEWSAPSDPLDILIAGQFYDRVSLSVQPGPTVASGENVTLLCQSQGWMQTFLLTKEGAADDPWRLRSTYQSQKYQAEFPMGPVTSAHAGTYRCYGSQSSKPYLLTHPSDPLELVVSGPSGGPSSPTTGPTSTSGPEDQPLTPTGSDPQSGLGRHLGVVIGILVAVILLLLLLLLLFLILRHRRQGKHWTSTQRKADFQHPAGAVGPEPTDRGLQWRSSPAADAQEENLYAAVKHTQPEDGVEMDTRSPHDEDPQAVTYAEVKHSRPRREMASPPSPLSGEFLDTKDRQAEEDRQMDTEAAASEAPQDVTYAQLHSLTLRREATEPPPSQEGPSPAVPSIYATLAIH
T7 sequence (Q8NHL6 24-458 limits assumed): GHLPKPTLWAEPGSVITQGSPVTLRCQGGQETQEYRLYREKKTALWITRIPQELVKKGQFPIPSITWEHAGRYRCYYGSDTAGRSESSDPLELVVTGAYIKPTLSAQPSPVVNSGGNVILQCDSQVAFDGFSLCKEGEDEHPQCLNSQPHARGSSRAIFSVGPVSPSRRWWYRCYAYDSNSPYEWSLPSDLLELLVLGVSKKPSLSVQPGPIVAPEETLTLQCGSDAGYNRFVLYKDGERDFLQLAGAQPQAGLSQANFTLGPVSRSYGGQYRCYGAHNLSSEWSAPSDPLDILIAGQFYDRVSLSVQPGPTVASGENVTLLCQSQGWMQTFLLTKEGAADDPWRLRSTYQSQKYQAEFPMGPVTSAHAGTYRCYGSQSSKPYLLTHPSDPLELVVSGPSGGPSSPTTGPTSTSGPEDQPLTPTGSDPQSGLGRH
T1 sequence (Q8N149 24-449 limits assumed): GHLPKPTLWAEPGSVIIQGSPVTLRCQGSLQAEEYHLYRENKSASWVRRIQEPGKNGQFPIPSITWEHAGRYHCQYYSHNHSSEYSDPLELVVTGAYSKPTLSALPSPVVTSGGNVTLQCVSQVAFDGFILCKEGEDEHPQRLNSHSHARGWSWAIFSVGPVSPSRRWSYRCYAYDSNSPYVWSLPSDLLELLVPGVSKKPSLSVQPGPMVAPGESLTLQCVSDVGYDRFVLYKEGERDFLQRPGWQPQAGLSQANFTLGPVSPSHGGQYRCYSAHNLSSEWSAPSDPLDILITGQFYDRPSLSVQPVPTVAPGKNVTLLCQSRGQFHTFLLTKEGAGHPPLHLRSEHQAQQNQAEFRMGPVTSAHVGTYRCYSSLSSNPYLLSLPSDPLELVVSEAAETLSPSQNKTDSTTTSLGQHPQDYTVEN
T4 sequence (A6NI73 42-268 limits assumed): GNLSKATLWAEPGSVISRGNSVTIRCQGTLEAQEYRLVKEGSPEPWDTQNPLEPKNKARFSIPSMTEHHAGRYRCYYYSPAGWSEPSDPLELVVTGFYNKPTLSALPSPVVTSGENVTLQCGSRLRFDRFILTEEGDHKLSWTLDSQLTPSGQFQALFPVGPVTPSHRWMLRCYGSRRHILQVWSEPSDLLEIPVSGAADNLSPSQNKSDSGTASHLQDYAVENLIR
T3 sequence (O75019 17-461 limits assumed): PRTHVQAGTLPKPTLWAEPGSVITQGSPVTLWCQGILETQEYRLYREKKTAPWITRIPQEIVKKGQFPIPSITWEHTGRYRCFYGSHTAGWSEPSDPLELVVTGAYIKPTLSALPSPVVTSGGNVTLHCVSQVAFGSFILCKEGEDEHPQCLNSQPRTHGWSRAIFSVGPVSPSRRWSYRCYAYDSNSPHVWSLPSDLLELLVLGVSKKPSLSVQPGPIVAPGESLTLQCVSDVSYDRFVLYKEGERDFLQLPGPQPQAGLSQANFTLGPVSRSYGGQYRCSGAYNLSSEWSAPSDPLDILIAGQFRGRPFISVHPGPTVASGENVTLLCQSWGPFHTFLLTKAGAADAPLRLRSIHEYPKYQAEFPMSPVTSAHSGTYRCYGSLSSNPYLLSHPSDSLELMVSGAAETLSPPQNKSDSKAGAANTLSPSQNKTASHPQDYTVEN
Sequence of huLILRA3 (Q8N6C8 24-439 limits assumed): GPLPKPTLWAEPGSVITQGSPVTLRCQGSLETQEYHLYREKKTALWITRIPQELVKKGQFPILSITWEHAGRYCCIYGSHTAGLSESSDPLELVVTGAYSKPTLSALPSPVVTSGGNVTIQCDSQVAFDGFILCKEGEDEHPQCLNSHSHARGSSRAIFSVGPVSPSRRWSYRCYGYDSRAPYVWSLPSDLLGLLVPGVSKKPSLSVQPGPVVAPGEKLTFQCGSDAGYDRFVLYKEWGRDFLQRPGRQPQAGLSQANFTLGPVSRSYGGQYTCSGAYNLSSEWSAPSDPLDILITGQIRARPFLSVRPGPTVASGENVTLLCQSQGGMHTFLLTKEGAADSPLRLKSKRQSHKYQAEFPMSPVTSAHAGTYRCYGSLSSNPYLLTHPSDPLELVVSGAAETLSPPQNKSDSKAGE
Sequence of huLILRA4 (P59901 24-446 limits assumed): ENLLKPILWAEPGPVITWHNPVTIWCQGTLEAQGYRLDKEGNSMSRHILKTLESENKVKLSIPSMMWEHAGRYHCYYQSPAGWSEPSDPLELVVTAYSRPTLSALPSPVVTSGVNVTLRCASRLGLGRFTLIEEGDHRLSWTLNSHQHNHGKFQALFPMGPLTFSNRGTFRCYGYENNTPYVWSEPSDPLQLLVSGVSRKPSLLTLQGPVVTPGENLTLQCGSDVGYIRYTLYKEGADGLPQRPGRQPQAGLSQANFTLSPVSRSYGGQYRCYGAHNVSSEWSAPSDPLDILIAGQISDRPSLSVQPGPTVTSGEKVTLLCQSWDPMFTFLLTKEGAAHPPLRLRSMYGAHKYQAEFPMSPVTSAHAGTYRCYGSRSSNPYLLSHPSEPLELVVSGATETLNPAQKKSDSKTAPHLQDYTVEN
Sequence of huLILRA6 (Q6PI73 24-447 limits assumed): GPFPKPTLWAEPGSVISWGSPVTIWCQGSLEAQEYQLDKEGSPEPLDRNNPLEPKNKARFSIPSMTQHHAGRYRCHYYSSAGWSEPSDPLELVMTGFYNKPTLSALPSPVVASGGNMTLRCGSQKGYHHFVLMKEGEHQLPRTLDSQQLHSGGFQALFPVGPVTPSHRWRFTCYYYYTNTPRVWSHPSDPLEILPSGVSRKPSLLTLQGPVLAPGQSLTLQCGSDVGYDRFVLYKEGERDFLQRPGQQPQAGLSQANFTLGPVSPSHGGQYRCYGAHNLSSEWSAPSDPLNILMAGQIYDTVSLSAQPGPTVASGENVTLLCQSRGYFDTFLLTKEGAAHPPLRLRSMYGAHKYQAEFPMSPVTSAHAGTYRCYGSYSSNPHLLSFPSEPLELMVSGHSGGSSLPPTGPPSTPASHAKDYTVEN
Sequence of huLILRB3 (O75022 24-443 limits assumed): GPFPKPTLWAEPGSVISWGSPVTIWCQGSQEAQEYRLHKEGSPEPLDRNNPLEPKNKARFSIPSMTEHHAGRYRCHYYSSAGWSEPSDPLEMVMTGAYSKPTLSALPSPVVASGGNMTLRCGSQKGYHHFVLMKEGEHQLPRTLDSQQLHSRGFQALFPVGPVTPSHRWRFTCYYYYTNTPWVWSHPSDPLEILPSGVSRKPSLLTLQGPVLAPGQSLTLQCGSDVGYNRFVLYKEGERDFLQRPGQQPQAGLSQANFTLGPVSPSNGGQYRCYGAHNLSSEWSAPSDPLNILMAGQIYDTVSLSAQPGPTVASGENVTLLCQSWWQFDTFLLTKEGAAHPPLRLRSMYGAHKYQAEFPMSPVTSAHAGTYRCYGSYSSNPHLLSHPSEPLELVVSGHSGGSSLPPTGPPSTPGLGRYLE
Sequence of huLILRB5 (O75023 24-458 limits assumed): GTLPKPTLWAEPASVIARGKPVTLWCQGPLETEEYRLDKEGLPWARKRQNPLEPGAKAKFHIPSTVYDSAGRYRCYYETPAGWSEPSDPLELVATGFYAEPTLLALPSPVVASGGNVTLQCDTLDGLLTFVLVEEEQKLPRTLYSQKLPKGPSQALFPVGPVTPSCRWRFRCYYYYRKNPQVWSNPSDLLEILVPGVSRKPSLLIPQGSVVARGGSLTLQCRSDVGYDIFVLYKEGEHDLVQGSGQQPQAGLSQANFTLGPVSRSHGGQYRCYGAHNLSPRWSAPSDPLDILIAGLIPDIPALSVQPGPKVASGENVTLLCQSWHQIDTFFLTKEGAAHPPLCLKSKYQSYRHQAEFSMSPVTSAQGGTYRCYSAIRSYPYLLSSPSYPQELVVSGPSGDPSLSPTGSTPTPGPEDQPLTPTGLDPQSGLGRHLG

binding result (huLILRA4): no binding (tested: about 130 nM)
binding result (huLILRA2 [1]): no binding (tested: about 130 nM)
binding result (huLILRB5): no binding (tested: about 130 nM)
EC50 (read off the curve) [2]: ~0.6 nM
binding result (huLILRB3): no binding (tested: about 130 nM)
binding result (huLILRB4): no binding (tested: about 130 nM)
binding result (huLILRA6): no binding (tested: about 130 nM)
binding result (huLILRA3): no binding (tested: about 130 nM)
binding result (huLILRA1 [3]): no binding (tested: about 130 nM)
binding result (huLILRA5 [4]): no binding (tested: about 130 nM)
IC50 [5]: 37.6 nM
Kd [6]: 0.73 nM
koff [6]: 0.000323 s⁻¹
kon [6]: 443000 M⁻¹ s⁻¹
t½ [6]: 2150 s
IC50 [7]: 15.4 nM
Kd [8]: 29.8 nM
koff [8]: 0.0135 s⁻¹
kon [8]: 457000 M⁻¹ s⁻¹
t½ [8]: 51.3 s
B1: LILRB1xLILRB2 bispecific antibody BsAb-1882 (bispecific antibody)
heavy 1: not shown
light 1: SYELTQPPSVSVSPGQTASITCGGNNIGSKGVHWYQQKPGQSPVLVISYDSDRPSGIPERFSGSNSGNTATLTISGTQAMDEADYYCQVWDSSTRVFGTGTKVTVLGQPKAAPSVTLFPPSSEELQANKATLVCLISDFYPGAVTVAWKADSSPVKAGVETTTPSKQSNNKYAASSYLSLTPEQWKSHRSYSCQVTHEGSTVEKTVAPTECSDKTHTCPPCPAPEAAGAPSVFLFPPKPKDTLMISRTPEVTCVVVDVSHEDPEVKFNWYVDGVEVHNAKTKPREEQYNSTYRVVSVLTVLHQDWLNGKEYKCKVSNKALPAPIEKTISKAKGQPREPQVYTLPPCREEMTKNQVSLSCAVKGFYPSDIAVEWESNGQPENNYKTTPPVLDSDGSFFLVSKLTVDKSRWQQGNVFSCSVMHEALHNHYTQKSLSLSPGK
heavy 2: EVQLLESGGGLVQPGGSLRLSCAASGFTFSSYAMSWVRQAPGKGLEWVSAISGSGGSTYYADSVKGRFTISRDNSKNTLYLQMNSLRAEDTAVYYCWRWLNLGDAFDIWGQGTMVTVSSASTKGPSVFPLAPSSKSTSGGTAALGCLVKDYFPEPVTVSWNSGALTSGVHTFPAVLQSSGLYSLSSVVTVPSSSLGTQTYICNVNHKPSNTKVDKKVEPKSCDKTHTCPPCPAPEAAGAPSVFLFPPKPKDTLMISRTPEVTCVVVDVSHEDPEVKFNWYVDGVEVHNAKTKPREEQYNSTYRVVSVLTVLHQDWLNGKEYKCKVSNKALPAPIEKTISKAKGQPREPQVCTLPPSREEMTKNQVSLWCLVKGFYPSDIAVEWESNGQPENNYKTTPPVLDSDGSFFLYSKLTVDKSRWQQGNVFSCSVMHEALHNHYTQKSLSLSPGK
light 2: not shown
notes: The B1 arm Fc chain is joined to the light chain CL; also called LILRB1/LILRB2 bispecific antibody

binding result (huLILRA2 [9]): no binding
binding result (huLILRA1 [10]): no binding
binding result (huLILRA5 [11]): no binding
EC50 [12]: 2.69 nM
IC50 [13]: 1.5 nM
Kd [14]: 26 nM
koff [14]: 0.014 s⁻¹
kon [14]: 539000 M⁻¹ s⁻¹
t½ [14]: 49.5 s
B2: anti-LILRB1 antibody Ab-B1-1704 (antibody, human IgG1, lambda, V domains shown)
VH: EVQLVESGGGLVQPGGSLRLSCAASGFTFSSYAMHWVRQAPGKGLEWVAVISYDGSNKYYADSVKGRFTISRDNAKNSLYLQMNSLRAEDTAVYYCARDKGIGTSPLDYWGQGTLVTVSS
VL: SYELTQPPSVSVSPGQTASITCGGNNIGSKGVHWYQQKPGQSPVLVISYDSDRPSGIPERFSGSNSGNTATLTISGTQAMDEADYYCQVWDSSTRVFGTGTKVTVLG
